Experiment [1] addresses CD3ε homodimer protein (human) (UniProt P07766). As to the kind of experiment: SPR, CD3e immobilized. Background: Surface plasmon resonance follows binding to a sensor surface in real time, without labels.
The target is the same in experiment [2]. In words: SPR, immobilized CD3ε homodimer.
For experiment [3] the target is unchanged. In words: SPR, CD3ε homodimer on chip.

Residue numbers refer to the chain shown, from its start. Numbers in names are those of the source.

CD3ε homodimer protein (human), sequence (P07766 23-126 limits assumed): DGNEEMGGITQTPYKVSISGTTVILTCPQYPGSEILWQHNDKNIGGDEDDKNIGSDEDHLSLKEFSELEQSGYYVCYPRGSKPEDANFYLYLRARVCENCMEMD

B1: GLS3000 H27dM (antibody, IgG1, name in Kabat numbering, V domains shown)
VH: QVQLVESGGGVVQPGRSLRLSCAASGFTFSNAWMHWVRQAPGKGLEWVAQIKAKSNNYATYYAESVKGRFTISRDDSKNSLYLQMNSLKTEDTAVYYCRYVHYGAYYGVDAWGQGTTVTVSS
VL: DIVMTQSPLSLPVTPGEPASISCRSSQSLVMSNRNTYLHWYQQKPGQAPRLLIYKVSNRFSGVPDRFSGSGSGTDFTLKISRVEAEDVGVYYCGQGTQVPYTFGQGTKLEIK
On to B1, for which the KD ratio to GLS3000 in experiment [1] came out at 3.43. In experiment [2], the ratio of amounts bound (vs GLS3000) was found to be 0.03.

B2: CE115HA000 Y97S (antibody, name in Kabat numbering, V domains shown)
VH: B1 VH with Y103S
VL: B1 VL with M31H
Consider B2, for which the ratio of amounts bound vs CE115HA000 in experiment [3] was determined as 9.28.

B3: CE115HA000 V95E (antibody, name in Kabat numbering, V domains shown)
VH: B1 VH with V101E
VL: B1 VL with M31H
Turning to B3, in experiment [3], the ratio of amounts bound vs CE115HA000 came to 9.24.

B4: CE115HA000 D101R (antibody, name in Kabat numbering, V domains shown)
VH: B1 VH with D110R
VL: B1 VL with M31H
Regarding B4, in experiment [3], the ratio of amounts bound vs CE115HA000 was determined as 9.24.

B5: GLS3000 H27dD (antibody, IgG1, name in Kabat numbering, V domains shown)
VH: B1 VH
VL: B1 VL with M31D
In the case of B5, the KD ratio to GLS3000 in experiment [1] turned out to be 13600.

B6: CE115HA000 Y97R (antibody, name in Kabat numbering, V domains shown)
VH: B1 VH with Y103R
VL: B1 VL with M31H
With B6, the ratio of amounts bound vs CE115HA000 in experiment [3] worked out at 9.27.

For the origin of these results see patent publication US20220040297A1.
